Reference: paper PMC4033627

Key:
[1] = target: Sst2^catD354A (Asp354Ala mutant of the catalytic domain of Sst2) (S. pombe) (UniProt Q9P371); assay: ITC
[2] = target: catalytic domain of Sst2 (residues 245–435), Sst2^cat (S. pombe) (UniProt Q9P371); assay: ITC
catalytic domain of Sst2 (residues 245–435), Sst2^cat (S. pombe), sequence (Q9P371 245-435): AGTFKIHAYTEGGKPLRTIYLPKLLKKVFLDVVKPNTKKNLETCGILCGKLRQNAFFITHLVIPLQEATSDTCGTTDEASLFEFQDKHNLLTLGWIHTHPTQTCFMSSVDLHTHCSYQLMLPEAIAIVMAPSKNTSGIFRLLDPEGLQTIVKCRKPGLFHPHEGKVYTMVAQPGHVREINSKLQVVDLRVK

Sst2^catD354A (Asp354Ala mutant of the catalytic domain of Sst2) (S. pombe), sequence (Q9P371 245-435 D354A): as the sequence (Q9P371 245-435) above, with D110A counted along it

| Substance | Kd [1] [µM] | dH [1] [kcal/mol] | dH [2] [kcal/mol] |
| --- | --- | --- | --- |
| Lys63-linked diubiquitin, enzymatically synthesized from Lys63Arg and Asp77 ubiquitin mutants | 1.1 | 11.8 | – |
| ubiquitin (from a pRSETA plasmid, for isothermal titration calorimetry) (from UniProt P0CG48 1-76) (natural protein) | – | – | 11.9 |
